The supplement of paper PMC11246515
± gives the standard deviation of the averaged measurements.

Test: total protein half-life in vivo (active degradation + dilution); higher = more stable protein
[1] = E. coli NCM3722 delta-hslV, growth: N-lim chemostat, doubling time 6 h
[2] = wild type E. coli NCM3722, growth: C-lim chemostat, doubling time 3 h
[3] = wild type E. coli NCM3722, growth: C-lim chemostat, doubling time 6 h
[4] = wild type E. coli NCM3722, growth: C-lim chemostat, doubling time 12 h
[5] = wild type E. coli NCM3722, growth: P-lim chemostat, doubling time 6 h
[6] = wild type E. coli NCM3722, growth: P-lim chemostat, doubling time 12 h
[7] = E. coli NCM3722 delta-clpP delta-lon delta-hslV, growth: N-lim chemostat, doubling time 6 h
[8] = E. coli NCM3722 delta-clpP, growth: N-lim chemostat, doubling time 6 h
[9] = E. coli NCM3722 delta-smpB, growth: N-lim chemostat, doubling time 6 h
[10] = wild type E. coli NCM3722, growth: N-lim chemostat, doubling time 6 h
[11] = wild type E. coli NCM3722, growth: N-lim chemostat, doubling time 12 h
[12] = E. coli NCM3722 delta-lon, growth: N-lim chemostat, doubling time 6 h

Sequence | total protein half-life in vivo [1] [h] | total protein half-life in vivo [2] [h] | total protein half-life in vivo [3] [h] | total protein half-life in vivo [4] [h] | total protein half-life in vivo [5] [h] | total protein half-life in vivo [6] [h] | total protein half-life in vivo [7] [h] | total protein half-life in vivo [8] [h] | total protein half-life in vivo [9] [h] | total protein half-life in vivo [10] [h] | total protein half-life in vivo [11] [h] | total protein half-life in vivo [12] [h]
METTQTSTIASKDSRSAWRKTDTMWMLGLYGTAIGAGVLFLPINAGVGGMIPLIIMAILAFPMTFFAHRGLTRFVLSGKNPGEDITEVVEEHFGIGAGKLITLLYFFAIYPILLVYSVAITNTVESFMSHQLGMTPPPRAILSLILIVGMMTIVRFGEQMIVKAMSILVFPFVGVLMLLALYLIPQWNGAALETLSLDTASATGNGLWMTLWLAIPVMVFSFNHSPIISSFAVAKREEYGDMAEQKCSKILAFAHIMMVLTVMFFVFSCVLSLTPADLAAAKEQNISILSYLANHFNAPVIAWMAPIIAIIAITKSFLGHYLGAREGFNGMVIKSLRGKGKSIEINKLNRITALFMLVTTWIVATLNPSILGMIETLGGPIIAMILFLMPMYAIQKVPAMRKYSGHISNVFVVVMGLIAISAIFYSLFS [P0AAD6] | 0.951 | 1.85 | 5.62 ± 2.4 | 2.71 | 1.58 | 3.86 ± 0.51 |  |  |  |  |  | 
MQQPVVRVGEWLVTPSINQISRNGRQLTLEPRLIDLLVFFAQHSGEVLSRDELIDNVWKRSIVTNHVVTQSISELRKSLKDNDEDSPVYIATVPKRGYKLMVPVIWYSEEEGEEIMLSSPPPIPEAVPATDSPSHSLNIQNTATPPEQSPVKSKRFTTFWVWFFFLLSLGICVALVAFSSLDTRLPMSKSRILLNPRDIDINMVNKSCNSWSSPYQLSYAIGVGDLVATSLNTFSTFMVHDKINYNIDEPSSSGKTLSIAFVNQRQYRAQQCFMSIKLVDNADGSTMLDKRYVITNGNQLAIQNDLLESLSKALNQPWPQRMQETLQKILPHRGALLTNFYQAHDYLLHGDDKSLNRASELLGEIVQSSPEFTYARAEKALVDIVRHSQHPLDEKQLAALNTEIDNIVTLPELNNLSIIYQIKAVSALVKGKTDESYQAINTGIDLEMSWLNYVLLGKVYEMKGMNREAADAYLTAFNLRPGANTLYWIENGIFQTSVPYVVPYLDKFLASE | 5.65 ± 0.78 |  |  |  | 6.18 ± 0.23 | 12.08 ± 0.11 | 5.6 ± 0.59 | 5.47 ± 0.86 | 5.484 ± 0.022 | 5.06 ± 0.32 | 12.73 ± 0.03 | 
MSLTELTGNPRHDQLLMLIAERGYMNIDELANLLDVSTQTVRRDIRKLSEQGLITRHHGGAGRASSVVNTAFEQREVSQTEEKKAIAEAVADYIPDGSTIFITIGTTVEHVARALLNHNHLRIITNSLRVAHILYHNPRFEVMVPGGTLRSHNSGIIGPSAASFVADFRADYLVTSVGAIESDGALMEFDVNEANVVKTMMAHARNILLVADHTKYHASAAVEIGNVAQVTALFTDELPPAALKSRLQDSQIEIILPQEDA | 5.17 ± 0.35 | 2.8 ± 0.12 | 5.113 ± 0.0071 | 10.7 ± 0.88 | 4.9 ± 0.25 | 8.679 ± 0.03 | 5.99 ± 0.15 | 4.97 ± 0.17 | 4.98 ± 0.86 | 4.89 ± 1 | 8.59 | 
MTNRLVLSGTVCRAPLRKVSPSGIPHCQFVLEHRSVQEEAGFHRQAWCQMPVIVSGHENQAITHSITVGSRITVQGFISCHKAKNGLSKMVLHAEQIELIDSGD |  | 2.97 |  |  |  | 15.6 |  |  | 4.72 | 5.76 |  | 
MKKVLLIILLLLVVLGIAAGVGVWKVRHLADSKLLIKEETIFTLKPGTGRLALGEQLYADKIINRPRVFQWLLRIEPDLSHFKAGTYRFTPQMTVREMLKLLESGKEAQFPLRLVEGMRLSDYLKQLREAPYIKHTLSDDKYATVAQALELENPEWIEGWFWPDTWMYTANTTDVALLKRAHKKMVKAVDSAWEGRADGLPYKDKNQLVTMASIIEKETAVASERDKVASVFINRLRIGMRLQTDPTVIYGMGERYNGKLSRADLETPTAYNTYTITGLPPGAIATPGADSLKAAAHPAKTPYLYFVADGKGGHTFNTNLASHNKSVQDYLKVLKEKNAQ | 6.8 ± 0.6 | 3.49 ± 0.33 | 6.65 ± 0.64 | 12.7 ± 1.6 | 6 ± 0.25 | 12 ± 0.45 | 6.33 ± 0.68 | 6.52 ± 1.1 | 6.22 ± 0.74 | 6.34 ± 0.68 | 12.4 ± 1.7 | 6.58 ± 0.69
MSGLRPALSTFIFLLLITGGVYPLLTTVLGQWWFPWQANGSLIREGDTVRGSALIGQNFTGNGYFHGRPSATAEMPYNPQASGGSNLAVSNPELDKLIAARVAALRAANPDASASVPVELVTASASGLDNNITPQAAAWQIPRVAKARNLSVEQLTQLIAKYSQQPLVKYIGQPVVNIVELNLALDKLDE | 4.28 |  |  |  |  | 11.7 ± 2.1 |  |  |  |  |  | 
MKIKTILTPVTCALLISFSAHAANADNYKNVINRTGAPQYMKDYDYDDHQRFNPFFDLGAWHGHLLPDGPNTMGGFPGVALLTEEYINFMASNFDRLTVWQDGKKVDFTLEAYSIPGALVQKLTAKDVQVEMTLRFATPRTSLLETKITSNKPLDLVWDGELLEKLEAKEGKPLSDKTIAGEYPDYQRKISATRDGLKVTFGKVRATWDLLTSGESEYQVHKSLPVQTEINGNRFTSKAHINGSTTLYTTYSHLLTAQEVSKEQMQIRDILARPAFYLTASQQRWEEYLKKGLTNPDATPEQTRVAVKAIETLNGNWRSPGGAVKFNTVTPSVTGRWFSGNQTWPWDTWKQAFAMAHFNPDIAKENIRAVFSWQIQPGDSVRPQDVGFVPDLIAWNLSPERGGDGGNWNERNTKPSLAAWSVMEVYNVTQDKTWVAEMYPKLVAYHDWWLRNRDHNGNGVPEYGATRDKAHNTESGEMLFTVKKGDKEETQSGLNNYARVVEKGQYDSLEIPAQVAASWESGRDDAAVFGFIDKEQLDKYVANGGKRSDWTVKFAENRSQDGTLLGYSLLQESVDQASYMYSDNHYLAEMATILGKPEEAKRYRQLAQQLADYINTCMFDPTTQFYYDVRIEDKPLANGCAGKPIVERGKGPEGWSPLFNGAATQANADAVVKVMLDPKEFNTFVPLGTAALTNPAFGADIYWRGRVWVDQFWFGLKGMERYGYRDDALKLADTFFRHAKGLTADGPIQENYNPLTGAQQGAPNFSWSAAHLYMLYNDFFRKQ |  |  |  |  |  |  |  |  | 6.15 |  |  | 
MTMTRLKISKTLLAVMLTSAVATGSAYAENNAQTTNESAGQKVDSSMNKVGNFMDDSAITAKVKAALVDHDNIKSTDISVKTDQKVVTLSGFVESQAQAEEAVKVAKGVEGVTSVSDKLHVRDAKEGSVKGYAGDTATTSEIKAKLLADDIVPSRHVKVETTDGVVQLSGTVDSQAQSDRAESIAKAVDGVKSVKNDLKTK [P0AFH8] | 5.73 ± 0.24 | 2.96 ± 0.067 | 5.39 ± 0.2 | 8.26 ± 2.2 | 4.9 ± 0.15 | 9.28 ± 0.88 | 3.62 ± 0.17 | 4.7 ± 0.28 | 5.25 ± 0.3 | 5.5 ± 0.26 | 11.3 ± 0.17 | 5.7 ± 0.33
MQKRAIYPGTFDPITNGHIDIVTRATQMFDHVILAIAASPSKKPMFTLEERVALAQQATAHLGNVEVVGFSDLMANFARNQHATVLIRGLRAVADFEYEMQLAHMNRHLMPELESVFLMPSKEWSFISSSLVKEVARHQGDVTHFLPENVHQALMAKLA [P0A6I6] |  |  | 6.01 ± 0.25 | 10.8 | 6.14 ± 0.072 | 12.9 ± 1 | 4.49 | 5.11 ± 0.59 | 4.82 ± 1 | 4.62 | 7.33 ± 0.35 | 5.58
MATGTQPDAGQILNSLINSILLIDDNLAIHYANPAAQQLLAQSSRKLFGTPLPELLSYFSLNIELMQESLEAGQGFTDNEVTLVIDGRSHILSVTAQRMPDGMILLEMAPMDNQRRLSQEQLQHAQQVAARDLVRGLAHEIKNPLGGLRGAAQLLSKALPDPSLLEYTKVIIEQADRLRNLVDRLLGPQLPGTRVTESIHKVAERVVTLVSMELPDNVRLIRDYDPSLPELAHDPDQIEQVLLNIVRNALQALGPEGGEIILRTRTAFQLTLHGERYRLAARIDVEDNGPGIPPHLQDTLFYPMVSGREGGTGLGLSIARNLIDQHSGKIEFTSWPGHTEFSVYLPIRK [P0AFB5] | 5.19 ± 0.57 | 3.11 ± 0.38 | 5.27 ± 0.073 | 9.99 ± 1.6 | 7.12 ± 0.5 | 11.2 ± 2.2 | 5.25 ± 0.15 | 5.41 ± 0.72 | 4.73 ± 0.11 | 4.48 ± 0.38 | 8.26 ± 1 | 4.938 ± 0.023
MQQSTPYLSFRGIGKTFPGVKALTDISFDCYAGQVHALMGENGAGKSTLLKILSGNYAPTTGSVVINGQEMSFSDTTAALNAGVAIIYQELHLVPEMTVAENIYLGQLPHKGGIVNRSLLNYEAGLQLKHLGMDIDPDTPLKYLSIGQWQMVEIAKALARNAKIIAFDEPTSSLSAREIDNLFRVIRELRKEGRVILYVSHRMEEIFALSDAITVFKDGRYVKTFTDMQQVDHDALVQAMVGRDIGDIYGWQPRSYGEERLRLDAVKAPGVRTPISLAVRSGEIVGLFGLVGAGRSELMKGMFGGTQITAGQVYIDQQPIDIRKPSHAIAAGMMLCPEDRKAEGIIPVHSVRDNINISARRKHVLGGCVINNGWEENNADHHIRSLNIKTPGAEQLIMNLSGGNQQKAILGRWLSEEMKVILLDEPTRGIDVGAKHEIYNVIYALAAQGVAVLFASSDLPEVLGVADRIVVMREGEIAGELLHEQADERQALSLAMPKVSQAVA [P0AAF3] | 5.15 | 2.228 ± 0.021 | 3.922 ± 0.021 | 5.96 ± 0.79 |  | 10.5 |  |  | 2.45 ± 0.57 |  | 6.06 | 
MNIEELKKQAETEIADFIAQKIAELNKNTGKEVSEIRFTAREKMTGLESYDVKIKIM [P0AC92] | 6.62 ± 0.26 | 2.98 ± 0.29 | 4.55 ± 2.8 | 10 ± 1.4 | 6.14 |  | > 8 | 5.88 ± 0.43 | 5.86 ± 0.59 | 5.99 ± 1.4 |  | 6.72 ± 0.85
MKLVGSYTSPFVRKLSILLLEKGITFEFINELPYNADNGVAQFNPLGKVPVLVTEEGECWFDSPIIAEYIELMNVAPAMLPRDPLESLRVRKIEALADGIMDAGLVSVREQARPAAQQSEDELLRQREKINRSLDVLEGYLVDGTLKTDTVNLATIAIACAVGYLNFRRVAPGWCVDRPHLVKLVENLFSRESFARTEPPKA [P0ACA1] | 4.118 ± 0.04 | 3.22 ± 0.13 | 5.52 ± 0.17 | 10.7 ± 0.87 | 5.51 ± 0.23 | 12 ± 1 | 5.35 ± 1.8 | 3.78 ± 0.28 | 4.22 ± 0.18 | 4.16 ± 0.18 | 6.719 ± 0.0095 | 4.31 ± 0.48
MIIHFTLNGAPQELTVNPGENVQKLLFNMGMHSVRNSDDGFGFAGSDAIIFNGNIVNASLLIAAQLEKADIRTAESLGKWNELSLVQQAMVDVGVVQSGYNDPAAALIITDLLDRIAAPTREEIDDALSGLFSRDAGWQQYYQVIELAVARKNNPQATIDIAPTFRDDLEVIGKHYPKTDAAKMVQAKPCYVEDRVTADACVIKMLRSPHAHALITHLDVSKAEALPGVVHVITHLNCPDIYYTPGGQSAPEPSPLDRRMFGKKMRHVGDRVAAVVAESEEIALEALKLIDVEYEVLKPVMSIDEAMAEDAPVVHDEPVVYVAGAPDTLEDDNSHAAQRGEHMIINFPIGSRPRKNIAASIHGHIGDMDKGFADADVIIERTYNSTQAQQCPTETHICFTRMDGDRLVIHASTQVPWHLRRQVARLVGMKQHKVHVIKERVGGGFGSKQDILLEEVCAWATCVTGRPVLFRYTREEEFIANTSRHVAKVTVKLGAKKDGRLTAVKMDFRANTGPYGNHSLTVPCNGPALSLPLYPCDNVDFQVTTYYSNICPNGAYQGYGAPKGNFAITMALAELAEQLQIDQLEIIERNRVHEGQELKILGAIGEGKAPTSVPSAASCALEEILRQGREMIQWSSPKPQNGDWHIGRGVAIIMQKSGIPDIDQANCMIKLESDGTFIVHSGGADIGTGLDTVVTKLAAEVLHCPPQDVHVISGDTDHALFDKGAYASSGTCFSGNAARLAAENLREKILFHGAQMLGEPVADVQLATPGVVRGKKGEVSFGDIAHKGETGTGFGSLVGTGSYITPDFAFPYGANFAEVAVNTRTGEIRLDKFYALLDCGTPVNPELALGQIYGATLRAIGHSMSEEIIYDAEGHPLTRDLRSYGAPKIGDIPRDFRAVLVPSDDKVGPFGAKSISEIGVNGAAPAIATAIHDACGIWLREWHFTPEKILTALEKI |  |  |  | 9.16 |  |  | > 8 |  |  |  |  | 
